Measurements as given in the supplement of paper PMC10201428.
± gives the standard deviation of the averaged measurements.

Key:
[1] = tested on: VchCAST RNA-guided transposition machinery (E. coli BL21(DE3) host, lacZ target); assay: relative integration efficiency (T-LR orientation) vs wild-type transposon end (log2 (normalized fold change)); transposon end mutated: left end; higher = more efficient transposition
In short: (§1)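 Barcode abundances in input plasmids and in genomic integration junctions were obtained by PCR amplification and Illumina sequencing. These came from E. coli BL21(DE3) co-transformed with a T7-driven effector plasmid and a pUC57 donor carrying 1549 left-end or 1849 right-end transposon variants, then plated with 0.1 mM IPTG at 37°C for 18 h. Relative integration efficiency is the output/input fold change, normalised to reference barcodes and log-transformed.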

[2] = tested on: VchCAST RNA-guided transposition machinery (E. coli BL21(DE3) host, lacZ target); assay: relative integration efficiency (T-RL orientation) vs wild-type transposon end (log2 (normalized fold change)); transposon end mutated: left end; higher = more efficient transposition
In short: as §1

Row | Sequence | relative integration efficiency (log2) [1] | relative integration efficiency (log2) [2]
1 | AATGTTGTTGATGCAACCATAAAGTGATATTTAATAATTATTTATAATCAGCAACTTACAACCATATATTGATATCTCACAAAACAACCATAAGTTGATATTTTTGTGAATCGAGTATTTCAGCAAAACTACTGCAGTAAGAAAGTTACTTC | -0.998 ± 0.78 | -0.809 ± 0.49
2 | AATGTTGTTGATGCAACCATAAAGTGATATTTAATAATTATTTATAATCAGCAACTTACAACCATATATTGATATCTCACCACAAAAACAAAACAACCATAAGTTGATATTTTTGTGAATCGAGTATTTCAGCAAAACTACTGCAGTAAGAA | 0.226 ± 1.1 | -0.417 ± 0.35
3 | AATGTTGTTGATGCAACCATAAAGTGATATTTAATAATTATTTATAATCAGCAACTTCAACCATATATTGATATCTCAACCACAAAAACAAAACAACCATAAGTTGATATTTTTGTGAATCGAGTATTTCAGCAAAACTACTGCAGTAAGAA | -2.92 ± 1.7 | -2.25 ± 0.7
4 | AATGTTGTTGATGCAACCATAAAGTGATATTTAATAATTATTTATAATCAGCAACTTCAACCATATATTGATATCTCACAAAACAACCATAAGTTGATATTTTAACCACAAAATGTGAATCGAGTATTTCAGCAAAACTACTGCAGTAAGAA | -1.03 ± 0.79 | -0.834 ± 0.54
5 | AATGTTGTTGATGCAACCATAAAGTGATATTTAATAATTATTTATAATCAGCAACTTCAACCATATATTGATATCTCACAAAACAACCATAAGTTGATATTTTTGTGAATCGAGTATTTCAGCAAAACTACTGCAGTAAGAAAGTTACTTCG | -0.903 ± 0.24 | -1.06 ± 0.45
6 | AATGTTGTTGATGCAACCATAAAGTGATATTTAATAATTATTTATAATCAGCACAACCATATATTGATATCTCACTTAACCACAAAAACAAAACAACCATAAGTTGATATTTTTGTGAATCGAGTATTTCAGCAAAACTACTGCAGTAAGAA | < -10 | -6.85 ± 0.48
7 | AATGTTGTTGATGCAACCATAAAGTGATATTTAATAATTATTTATAATCAGCACAGGCCAACACCCCACCAACGCGCGGTCGCGAGACACCCCACCAACGCCTGGTCGCGGGGGTGTCCGATCTGATTTCAGCAAAACTACTGCAGTAAGAA | -3.578 ± 0.033 | -7.2 ± 1.5
8 | AATGTTGTTGATGCAACCATAAAGTGATATTTAATAATTATTTATAATCAGCCAACCATATATTGATATCTCACAAAACAACCATAAGTTGATATTTTTGTGAATCGAGTATTTCAGCAAAACTACTGCAGTAAGAAAGTTACTTCGTGGTA | -4.33 ± 0.31 | -7.71 ± 0.64
9 | AATGTTGTTGATGCAACCATAAAGTGATATTTAATAATTATTTATAATCAGCCCAGGCCAACACCCCACCAACGCGCGGTCGCGAGACACCCCACCAACGCCTGGTCGCGGGGGTGTCCGATCTGATTTCAGCAAAACTACTGCAGTAAGAA | -4.09 ± 1.1 | -6.41 ± 1.4
10 | AATGTTGTTGATGCAACCATAAAGTGATATTTAATAATTATTTATAATCCTACCAGGCCAACACCCCACCAACGCGCGGTCGCGAGACACCCCACCAACGCCTGGTCGCGGGGGTGTCCGATCTGATTTCAGCAAAACTACTGCAGTAAGAA | -5.08 ± 3.7 | -6.45 ± 1.8
11 | AATGTTGTTGATGCAACCATAAAGTGATATTTAATAATTATTTATACAACCATAAAGTGATATTTAACAACCATATATTGATATCTCACAAAACAACCATAAGTTGATATTTTTGTGAATCGAGTATTTCAGCAAAACTACTGCAGTAAGAA | -4.48 ± 0.05 | -6.31 ± 0.44
12 | AATGTTGTTGATGCAACCATAAAGTGATATTTAATAATTATTTATACAACCATATATTGATATCTCATCAGCAACTTAACCACAAAAACAAAACAACCATAAGTTGATATTTTTGTGAATCGAGTATTTCAGCAAAACTACTGCAGTAAGAA | -1.08 ± 0.46 | -4.35 ± 0.47
13 | AATGTTGTTGATGCAACCATAAAGTGATATTTAATAATTATTTATACGACTACCAGGCCAACACCCCACCAACGCGCGGTCGCGAGACACCCCACCAACGCCTGGTCGCGGGGGTGTCCGATCTGATTTCAGCAAAACTACTGCAGTAAGAA | -4.47 ± 0.46 | -6.45 ± 1.3
